The results in this text go back to US20240158475A1.

The Kd is the concentration at which binding is half-saturated. As usually defined, the koff is a measure of how fast the partners let go of each other. Usually kon stands for a measure of how fast the partners come together.

The target of assay [1] is DN-III-NS antigen (produced by Fapon Biotech InC.) (dengue virus). The experiment in a line: capture ELISA, antibody sample 3-fold dilution. In general terms: In an ELISA, binding on a coated surface is turned into a signal by an enzyme label.
For assay [2] the target is unchanged. The experiment in a line: capture ELISA, antibody sample 9-fold dilution.
Assay [3] shares this target. Description: capture ELISA, antibody sample 27-fold dilution.
For assay [4] the target is unchanged. Description: capture ELISA, antibody sample 81-fold dilution.
The target is the same in assay [5]. The experiment in a line: capture ELISA, antibody sample 243-fold dilution.
Assay [6] shares this target. The experiment in a line: capture ELISA, antibody sample 729-fold dilution.
For assay [7] the target is unchanged. The experiment in a line: capture ELISA (anti-mouse IgG / antibody / antigen / HRP-mAb), antibody sample Original.
Assay [8] deals with DN-III quality control recombinant protein (produced by Fapon Biotech InC.) (dengue virus). The experiment in a line: BLI, AMC sensor, antibody captured.

B1: Mutation 2 (antibody, V domains shown)
VH: EVQLQQSGTELVRPGALVKLSCKASGFNIKDYYVHWVKQRPRQGLEWIGWIDPNNGKTLYDPKYQDKASITSDTSTNTAYLQLRSLTSEDTAVYYCVTAYVRFVYWGQGTLVTVSA
VL: QIVLTQSPAIMSAFPGERVTMTCSASSSVRYMYWHQQKPGSSPRLLIYDTSNVASGVPVRFSGSGSGTSYSLTISRDEAMDAATYYCQQYSSTPRTFGGGTKLEIKR
With B1, the OD450 (ref. 630 nm) came out at 2.25 OD in assay [1]; 2.13 OD in assay [2]; 1.56 OD in assay [3]; 0.689 OD in assay [4]; 0.204 OD in assay [5]; 0.158 OD in assay [6]. In assay [7], this molecule returned an OD450 (ref. 630 nm) of 2.27 OD.

B2: Mutation 1-18 (antibody, V domains shown)
VH: EVQLQQSGTELVRPGALVKLSCKASGFNIKDYYVHWVKQRPRQGLEWIGWIDPENGKTLYDPKFQDKASITSDTSTNTAYLQLRSLTSEDTAVYYCVSAYVRFVYWGQGTLVTVSA
VL: QIVLTQSPAIMSAFPGERVTMTCSASSSVRYMYWHQQKPGSSPRLLIYDTSNLASGVPVRFSGSGSGTSYSLTISRDEAMDAATYYCQQWSSTPRTFGGGTKLEIKR
With B2, in assay [8], the dissociation constant Kd turned out to be 0.9 nM, the koff amounted to 3.99e-05 s⁻¹ and the on-rate constant (kon) was 44500 M⁻¹ s⁻¹.

B3: Mutation 1-13 (antibody, V domains shown)
VH: EVQLQQSGTELVRPGALVKLSCKASGFNIKDYYIHWVKQRPRQGLEWIGWIDPENGKTIYDPKFQDKASITSDTSTNTAYLQLRSLTSEDTAVYYCVTAYYRFVYWGQGTLVTVSA
VL: QIVLTQSPAIMSAFPGERVTMTCSASSSVRYMYWHQQKPGSSPRLLIYDTSNLASGVPVRFSGSGSGTSYSLTISRDEAMDAATYYCQQWSSYPRTFGGGTKLEIKR
Regarding B3, in assay [8], the Kd was determined as 0.49 nM, the koff was found to be 2.08e-05 s⁻¹ and the kon came out at 42400 M⁻¹ s⁻¹.

B4: Mutation 1-20 (antibody, V domains shown)
VH: EVQLQQSGTELVRPGALVKLSCKASGFNIKDYYVHWVKQRPRQGLEWIGWIDPENGKTLYDPKFQDKASITSDTSTNTAYLQLRSLTSEDTAVYYCVSAYYRFVYWGQGTLVTVSA
VL: QIVLTQSPAIMSAFPGERVTMTCSASSSVRYMYWHQQKPGSSPRLLIYDTSNVASGVPVRFSGSGSGTSYSLTISRDEAMDAATYYCQQWSSTPRTFGGGTKLEIKR
B4: in assay [8], the Kd stood at 0.41 nM, the off-rate (koff) came out at 1.66e-05 s⁻¹ and the association rate constant (kon) worked out at 40900 M⁻¹ s⁻¹.

B5: Mutation 1-16 (antibody, V domains shown)
VH: EVQLQQSGTELVRPGALVKLSCKASGFNIKDYYIHWVKQRPRQGLEWIGWIDPENGKTLYDPKFQDKASITSDTSTNTAYLQLRSLTSEDTAVYYCVSAYVRFVYWGQGTLVTVSA
VL: QIVLTQSPAIMSAFPGERVTMTCSASSSVRYMYWHQQKPGSSPRLLIYDTSNVASGVPVRFSGSGSGTSYSLTISRDEAMDAATYYCQQWSSYPRTFGGGTKLEIKR
As to B5, in assay [8], the Kd was 0.8 nM, the off-rate constant (koff) is 3.04e-05 s⁻¹ and the kon was found to be 38100 M⁻¹ s⁻¹.

B6: Mutation 1-12 (antibody, V domains shown)
VH: EVQLQQSGTELVRPGALVKLSCKASGFNIKDYYVHWVKQRPRQGLEWIGWIDPENGKTLYDPKFQDKASITSDTSTNTAYLQLRSLTSEDTAVYYCVTAYFRFVYWGQGTLVTVSA
VL: QIVLTQSPAIMSAFPGERVTMTCSASTSVRYMYWHQQKPGSSPRLLIYDTSNIASGVPVRFSGSGSGTSYSLTISRDEAMDAATYYCQQWSSTPRTFGGGTKLEIKR
On to B6, for which, in assay [8], the Kd came out at 1.09 nM, the off-rate constant (koff) is 4.55e-05 s⁻¹ and the on-rate constant (kon) was determined as 41800 M⁻¹ s⁻¹.

B7: Mutation 1-14 (antibody, V domains shown)
VH: EVQLQQSGTELVRPGALVKLSCKASGFNIKDYYLHWVKQRPRQGLEWIGWIDPENGKTLYDPKFQDKASITSDTSTNTAYLQLRSLTSEDTAVYYCVSAYVRFVYWGQGTLVTVSA
VL: QIVLTQSPAIMSAFPGERVTMTCSASTSVRYMYWHQQKPGSSPRLLIYDTSNVASGVPVRFSGSGSGTSYSLTISRDEAMDAATYYCQQWSSFPRTFGGGTKLEIKR
As for B7, in assay [8], the Kd was determined as 0.111 nM, the koff came out at 4.53e-05 s⁻¹ and the kon was 408000 M⁻¹ s⁻¹.

B8: Mutation 1-15 (antibody, V domains shown)
VH: EVQLQQSGTELVRPGALVKLSCKASGFNIKDYYVHWVKQRPRQGLEWIGWIDPENGKTIYDPKFQDKASITSDTSTNTAYLQLRSLTSEDTAVYYCVTAYYRFVYWGQGTLVTVSA
VL: QIVLTQSPAIMSAFPGERVTMTCSASTSVRYMYWHQQKPGSSPRLLIYDTSNIASGVPVRFSGSGSGTSYSLTISRDEAMDAATYYCQQWSSTPRTFGGGTKLEIKR
Regarding B8, in assay [8], the dissociation constant Kd worked out at 0.42 nM, the off-rate (koff) is 1.89e-05 s⁻¹ and the kon amounted to 45200 M⁻¹ s⁻¹.

B9: anti-dengue virus NS1 3D5 monoclonal antibody (recombinant, expressed in CHO cells) (antibody, mouse IgG1, kappa, V domains shown)
VH: EVQLQQSGTELVRPGALVKLSCKASGFNIKDYYVHWVKQRPRQGLEWIGWIDPNNGKTIYDPKFQDKASITSDTSTNTAYLQLRSLTSEDTAVYYCVTAYVRFVYWGQGTLVTVSA
VL: QIVLTQSPAIMSAFPGERVTMTCSASTSVKYMYWHQQKPGSSPRLLIYETSNIASGVPVRFSGSGSGTSYSLTISRDEAMDAATYYCQQWSSYPRTFGGGTKLEIKR
Take B9: in assay [8], the Kd was found to be 3.09 nM. In addition, the off-rate (koff) in assay [8] was 0.000137 s⁻¹. For the same molecule, in assay [8], the kon came to 44300 M⁻¹ s⁻¹. Also, the OD450 (ref. 630 nm) was 2.31 OD in assay [1]; 2.22 OD in assay [2]; 1.57 OD in assay [3]; 0.696 OD in assay [4]; 0.281 OD in assay [5]; 0.169 OD in assay [6]. The molecule further registered an OD450 (ref. 630 nm) in assay [7] of 2.34 OD.

B10: Mutation 1 (antibody, V domains shown)
VH: EVQLQQSGTELVRPGALVKLSCKASGFNIKDYYVHWVKQRPRQGLEWIGWIDPENGKTLYDPKFQDKASITSDTSTNTAYLQLRSLTSEDTAVYYCVTAYVRFVYWGQGTLVTVSA
VL: QIVLTQSPAIMSAFPGERVTMTCSASSSVRYMYWHQQKPGSSPRLLIYDTSNVASGVPVRFSGSGSGTSYSLTISRDEAMDAATYYCQQWSSTPRTFGGGTKLEIKR
Turning to B10, in assay [8], the dissociation constant (Kd) worked out at 1.07 nM. The koff in assay [8] worked out at 4.03e-05 s⁻¹. The on-rate (kon) in assay [8] was determined as 37700 M⁻¹ s⁻¹. In addition, the OD450 (ref. 630 nm) turned out to be 2.38 OD in assay [1]; 2.29 OD in assay [2]; 1.9 OD in assay [3]; 0.918 OD in assay [4]; 0.361 OD in assay [5]; 0.188 OD in assay [6]. In assay [7], this molecule returned an OD450 (ref. 630 nm) of 2.37 OD.

B11: Mutation 1-19 (antibody, V domains shown)
VH: EVQLQQSGTELVRPGALVKLSCKASGFNIKDYYIHWVKQRPRQGLEWIGWIDPENGKTIYDPKFQDKASITSDTSTNTAYLQLRSLTSEDTAVYYCVSAYFRFVYWGQGTLVTVSA
VL: QIVLTQSPAIMSAFPGERVTMTCSASTSVRYMYWHQQKPGSSPRLLIYDTSNVASGVPVRFSGSGSGTSYSLTISRDEAMDAATYYCQQWSSYPRTFGGGTKLEIKR
B11: in assay [8], the dissociation constant Kd amounted to 4.1 nM, the koff amounted to 4.34e-05 s⁻¹ and the kon was determined as 31400 M⁻¹ s⁻¹.

B12: Mutation 4 (antibody, V domains shown)
VH: EVQLQQSGTELVRPGALVKLSCKASGFNIKRYYVHWVKQRPRQGLEWIGWIDPRNGKTLYDPKVQDKASITSDTSTNTAYLQLRSLTSEDTAVYYCVTAYVRFVYWGQGTLVTVSA
VL: QIVLTQSPAIMSAFPGERVTMTCSASSSVIYMYWHQQKPGSSPRLLIYWTSNVASGYPVRFSGSGSGTSYSLTISRDEAMDAATYYCQQVSSTPRTFGGGTKLEIKR
Take B12: the results for the OD450 (ref. 630 nm) in assay [1], in assay [2] and in assay [7] were 0.102 OD, 0.014 OD and 0.892 OD, respectively.

B13: Mutation 3 (antibody, V domains shown)
VH: EVQLQQSGTELVRPGALVKLSCKASGFNIKLYYVHWVKQRPRQGLEWIGWIDPKNGKTLYDPKCQDKASITSDTSTNTAYLQLRSLTSEDTAVYYCVTAYVRFVYWGQGTLVTVSA
VL: QIVLTQSPAIMSAFPGERVTMTCSASSSVVYMYWHQQKPGSSPRLLIYCTSNVASGLPVRFSGSGSGTSYSLTISRDEAMDAATYYCQQRSSTPRTFGGGTKLEIKR
Consider B13, for which the OD450 (ref. 630 nm) in assay [1] was 0.879 OD; in assay [2], 0.21 OD; in assay [3], 0.031 OD; in assay [7], 1.05 OD.

B14: Mutation 1-22 (antibody, V domains shown)
VH: EVQLQQSGTELVRPGALVKLSCKASGFNIKDYYIHWVKQRPRQGLEWIGWIDPENGKTLYDPKFQDKASITSDTSTNTAYLQLRSLTSEDTAVYYCVSAYYRFVYWGQGTLVTVSA
VL: QIVLTQSPAIMSAFPGERVTMTCSASTSVRYMYWHQQKPGSSPRLLIYDTSNLASGVPVRFSGSGSGTSYSLTISRDEAMDAATYYCQQWSSFPRTFGGGTKLEIKR
As for B14, in assay [8], the equilibrium dissociation constant (Kd) came out at 0.87 nM, the koff stood at 3.2e-05 s⁻¹ and the kon worked out at 48400 M⁻¹ s⁻¹.

B15: Mutation 1-21 (antibody, V domains shown)
VH: EVQLQQSGTELVRPGALVKLSCKASGFNIKDYYVHWVKQRPRQGLEWIGWIDPENGKTIYDPKFQDKASITSDTSTNTAYLQLRSLTSEDTAVYYCVSAYFRFVYWGQGTLVTVSA
VL: QIVLTQSPAIMSAFPGERVTMTCSASSSVRYMYWHQQKPGSSPRLLIYDTSNLASGVPVRFSGSGSGTSYSLTISRDEAMDAATYYCQQWSSFPRTFGGGTKLEIKR
With B15, in assay [8], the Kd was determined as 0.66 nM, the off-rate constant (koff) was 1.31e-05 s⁻¹ and the kon turned out to be 32300 M⁻¹ s⁻¹.

B16: Mutation 1-17 (antibody, V domains shown)
VH: EVQLQQSGTELVRPGALVKLSCKASGFNIKDYYLHWVKQRPRQGLEWIGWIDPENGKTIYDPKFQDKASITSDTSTNTAYLQLRSLTSEDTAVYYCVSAYFRFVYWGQGTLVTVSA
VL: QIVLTQSPAIMSAFPGERVTMTCSASTSVRYMYWHQQKPGSSPRLLIYDTSNIASGVPVRFSGSGSGTSYSLTISRDEAMDAATYYCQQWSSFPRTFGGGTKLEIKR
Take B16: in assay [8], the Kd turned out to be 0.78 nM, the koff turned out to be 2.71e-05 s⁻¹ and the kon is 34600 M⁻¹ s⁻¹.
